Measured values taken from patent US20240368307A1, “METHODS AND COMPOSITIONS FOR TREATING SEPSIS” (THE UNIVERSITY OF CHICAGO, priority 2023, published 2024).

T1: human recombinant PLA2G5 (Homo sapiens, UniProt P39877)
T1 construct: purchased Cayman chemical 10009563
T1 sequence (P39877 21-138): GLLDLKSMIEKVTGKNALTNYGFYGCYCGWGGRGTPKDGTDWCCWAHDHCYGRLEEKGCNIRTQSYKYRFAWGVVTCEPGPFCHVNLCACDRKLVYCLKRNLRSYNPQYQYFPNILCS

B1: rPLA2G5: human recombinant PLA2G5 (Cayman chemical, 10009563) (protein, UniProt P39877 21-138, looked up)
Phospholipase A2 group V: GLLDLKSMIEKVTGKNALTNYGFYGCYCGWGGRGTPKDGTDWCCWAHDHCYGRLEEKGCNIRTQSYKYRFAWGVVTCEPGPFCHVNLCACDRKLVYCLKRNLRSYNPQYQYFPNILCS

What was measured:
human recombinant PLA2G5 = target: T1, human recombinant PLA2G5; test: In vitro erythrocyte lysis assay with varespladib; type: cell-based; details: 100 nM of varespladib; PS-exposing erythrocytes
Experimental: (§1) The inventors hypothesized that PLA2G5 impacted red blood cells because of the impact of PLA2G5 blockade on splenic red pulp macrophages and iron stores. […] Next, the inventors examined the effect of osmotic pressure on the hemolysis induced by rPLA2G5.
In vitro erythrocyte lysis assay. Mouse whole blood was spun at 1,000 g, the plasma and buffy coat were removed, and red blood cells were washed three times in Hepes-buffered saline. Subsequently, a portion of erythrocytes was incubated with 100 μM CaCl2) in Hepes-buffered saline for 3 min at 37° C. Calcium ionophore (Cayman Chemical, A23187) was added to a final concentration of 4 μM, and the cells were further incubated for 10 min at 37° C. to induce membrane phospholipid (PS) scrambling. After that, 2 mM EDTA was added to stop the reaction. […] Hemolysis was measured by determining the amount of oxyhemoglobin in the supernatant of erythrocyte suspensions after centrifugation at 4,000 g. The absorbance at 414 nm in the supernatant of erythrocyte suspensions was measured using Nanodrop (Thermoscientific) and compared to that of a hemolyzed aliquot of the same erythrocyte suspension treated with Triton X-100.

mouse RBCs = test: In vitro erythrocyte lysis assay with recombinant PLA2G5; type: cell-based
Experimental: as §1
In vitro erythrocyte lysis assay. Mouse whole blood was spun at 1,000 g, the plasma and buffy coat were removed, and red blood cells were washed three times in Hepes-buffered saline. Subsequently, a portion of erythrocytes was incubated with 100 μM CaCl2) in Hepes-buffered saline for 3 min at 37° C. Calcium ionophore (Cayman Chemical, A23187) was added to a final concentration of 4 μM, and the cells were further incubated for 10 min at 37° C. to induce membrane phospholipid (PS) scrambling. After that, 2 mM EDTA was added to stop the reaction. In the presence or absence of 100 nM of varespladib, hypertonic solution (100 mM NaCl), or hypotonic solution (water-diluted Hepes-buffered saline), PS-exposing or untreated erythrocytes (10^9 cells/mL) were incubated with 5, 50, or 500 ng/mL of human recombinant PLA2G5 (Cayman chemical, 10009563) for 1 h at 37° C. in Hepes-buffered saline with 2 mM of calcium for the activity of PLA2G5. Hemolysis was measured by determining the amount of oxyhemoglobin in the supernatant of erythrocyte suspensions after centrifugation at 4,000 g. The absorbance at 414 nm in the supernatant of erythrocyte suspensions was measured using Nanodrop (Thermoscientific) and compared to that of a hemolyzed aliquot of the same erythrocyte suspension treated with Triton X-100.

erythrocytes = test: Lipidomics analysis of erythrocytes incubated with rPLA2G5; type: cell-based, mouse; details: 100 ng/mL rPLA2G5; 1 h at 37° C.
Text: To elucidate how PLA2G5 affected RBC membranes at the molecular level during hemolysis, the inventors performed lipidomics on erythrocytes in the presence or absence of rPLA2G5 in vitro.
Lipidomics analysis of erythrocytes. The procedures for lipidomics analysis using high-performance liquid chromatography coupled with electrospray tandem mass spectrometry (LC-ESI-MS/MS) were described above. Mouse whole blood was spun at 1,000 g, the plasma and buffy coat were removed, and red blood cells were washed three times in Hepes-buffered saline. Subsequently, a portion of erythrocytes was incubated with 100 μM CaCl2) in Hepes-buffered saline for 3 min at 37° C. Calcium ionophore (Cayman Chemical, A23187) was added to a final concentration of 4 μM, and the cells were further incubated for 10 min at 37° C. to induce membrane phospholipid (PS) scrambling. After that, 2 mM EDTA was added to stop the reaction. PS-exposing or untreated erythrocytes (10^9 cells/mL) were incubated with or without 100 ng/mL of human recombinant PLA2G5 (Cayman chemical, 10009563) for 1 h at 37° C. in Hepes-buffered saline with 2 mM of calcium for the activity of PLA2G5. The samples were kept at −80° C. until the following procedures.

[1] = Recombinant PLA2G5 injection in naive mice; type: in vivo, mouse; details: 10 μg rPLA2G5 intravenously
Text: Next, the inventors hypothesized that PLA2G5 impacted red blood cells in vivo during sepsis. To test this hypothesis, the inventors measured the plasma levels of heme, a degradation product of cell-free hemoglobin, in Pla2g5^+/+ and Pla2g5^−/− mice challenged with LPS. The inventors found a significant decrease in the plasma levels of heme in Pla2g5-deficient mice compared to wild type (FIG. 7A). […] The inventors next asked if PLA2G5 would be sufficient to induce intravascular hemolysis in vivo by injecting rPLA2G5 in naïve mice.
Recombinant PLA2G5 injections. C57BL/6J mice were injected intravenously with 10 μg of recombinant PLA2G5 (Cayman chemical, 10009563).
Blood analysis. Mouse whole blood was harvested by cardiac puncture and plasma and serum were isolated using lithium heparin coated Microtainer blood collection tubes (BD 365965) and Microtainer blood collection tubes (BD 365978), respectively. For flow cytometric, bead-based immunoassays, serum was diluted and processed using the LEGENDplex Mouse Macrophage/Microglia Panel (BioLegend 740846) kit. Data were acquired on the NovoCyte flow cytometer (Acea Biosciences/Agilent) and analyzed using the LEGNEDplex software v8 (BioLegend). To measure tissue injury marker levels in sera or plasma, samples were processed by In Vivo Animal Core, University of Michigan, with the following kits for BUN (BioAssay Systems DIUR-100), ALT (Cayman Chemical 700260), and troponin-I (Life Diagnostics CTNI-1-HS) levels according to the manufacturer's instructions, or with a Vet Axcel blood chemistry analyser (Alfa Wasserman). Total plasma heme was measured with the 3,3′,5,5′ tetramethylbenzidine (TMB) peroxidase assay and oxyhemoglobin with a Nanodrop One (Thermoscientific) instrument.

Row | Molecule | effect on the hemolytic effects of rPLA2G5 (human recombinant PLA2G5) | RBC lysis (cell-free oxyhemoglobin) (mouse RBCs; RBCs treated with Ca2+ and calcium ionophore, 5, 50, or 500 ng/mL rPLA2G5, 1 h at 37° C.) | hemolysis mediated by rPLA2G5 in hypertonic conditions (mouse RBCs; hypertonic solution (100 mM NaCl)) | hemolysis mediated by rPLA2G5 in hypotonic conditions (mouse RBCs; hypotonic solution (water-diluted Hepes-buffered saline)) | lipids released from RBC membranes (erythrocytes) | plasma level of heme [1] | plasma level of oxyhemoglobin [1] | serum level of ALT [1] | serum level of BUN [1]
1 | CCc1c(C(=O)C(N)=O)c2c(OCC(=O)O)cccc2n1Cc1ccccc1 [varespladib] | the hemolytic effects of rPLA2G5 were dependent on its phospholipase activity |  |  |  |  |  |  |  | 
2 | B1 |  | increased RBC lysis in a dose-dependent manner | inhibited hemolysis | promoted hemolysis | release of lysophospholipids with saturation and lower degrees of unsaturation and fatty acids | sufficient to elevate | sufficient to elevate | sufficient to elevate | sufficient to elevate
